Test results as given in the Human Domainome abundance scans (Beltran et al. 2025).
± gives the uncertainty stated by the source.

B1: Homeobox expressed in ES cells 1, residues 110 to 165; numbered along this chain, Q9UBX0 (parent)
chain: RPRTAFTQNQIEVLENVFRVNCYPGIDIREDLAQKLNLEEDRIQIWFQNRRAKLKR

Variants of: B1
Test: abundance fitness (aPCA) (normalised: wild type 0, dead -1); higher = more abundant; growth selection in yeast, the domain comes from the species named
Details: Homo sapiens
N9M gave an abundance fitness of 0.381 ± 0.068.
In the case of N9C, the abundance fitness is reported as -0.293 ± 0.26.
For N9Y, the abundance fitness was 0.044 ± 0.07.
Work on N9A yielded an abundance fitness of -0.169 ± 0.18.
Variant N9E has an abundance fitness of 0.288 ± 0.15.
With N9V the abundance fitness was 0.017 ± 0.075.
N9D showed an abundance fitness of 0.187 ± 0.27.
N9R gave an abundance fitness of -0.042 ± 0.13.
Work on N9T yielded an abundance fitness of -0.132 ± 0.088.
Work on N9F yielded an abundance fitness of -0.243 ± 0.25.
N9P showed an abundance fitness of -0.292 ± 0.12.
Work on N9K yielded an abundance fitness of -0.149 ± 0.26.
Work on N9S yielded an abundance fitness of -0.004 ± 0.13.
N9L showed an abundance fitness of 0.045 ± 0.14.
In the case of N9H, the abundance fitness is reported as 0.148 ± 0.14.
With N9I the abundance fitness was 0.118 ± 0.2.
Variant N9G has an abundance fitness of -0.103 ± 0.1.
Work on Q10P yielded an abundance fitness of -0.922 ± 0.26.
Variant Q10F has an abundance fitness of -0.993 ± 0.32.
In the case of Q10H, the abundance fitness is reported as -0.594 ± 0.14.
Work on Q10I yielded an abundance fitness of -0.404 ± 0.49.
Q10G gave an abundance fitness of -0.574 ± 0.11.
For Q10R, the abundance fitness was -0.662 ± 0.14.
With Q10L the abundance fitness was -0.744 ± 0.18.
Q10M showed an abundance fitness of 0.017 ± 0.43.
In the case of Q10V, the abundance fitness is reported as -0.279 ± 0.17.
Q10E gave an abundance fitness of -0.278 ± 0.15.
Q10D showed an abundance fitness of -0.287 ± 0.14.
In the case of A5R, the abundance fitness is reported as 0.132 ± 0.073.
In the case of A5N, the abundance fitness is reported as 0.391 ± 0.07.
In the case of A5V, the abundance fitness is reported as 0.296 ± 0.067.
A5Q showed an abundance fitness of 0.384 ± 0.068.
A5F gave an abundance fitness of 0.324 ± 0.076.
A5M showed an abundance fitness of 0.609 ± 0.061.
In the case of A5S, the abundance fitness is reported as 0.424 ± 0.052.
A5C showed an abundance fitness of 0.377 ± 0.092.
A5W gave an abundance fitness of -0.21 ± 0.069.
A5D showed an abundance fitness of 0.653 ± 0.068.
In the case of A5P, the abundance fitness is reported as 0.295 ± 0.068.
In the case of A5Y, the abundance fitness is reported as 0.429 ± 0.059.
A5L showed an abundance fitness of 0.249 ± 0.057.
In the case of A5H, the abundance fitness is reported as 0.164 ± 0.083.
Variant A5K has an abundance fitness of 0.412 ± 0.062.
With A5E the abundance fitness was 0.596 ± 0.093.
Work on A5I yielded an abundance fitness of 0.275 ± 0.068.
R3D showed an abundance fitness of 0.126 ± 0.09.
With R3S the abundance fitness was -0.181 ± 0.17.
Work on R3G yielded an abundance fitness of 0.178 ± 0.077.
Variant R3W has an abundance fitness of -0.674 ± 0.4.
Work on R3C yielded an abundance fitness of -0.462 ± 0.44.
Work on R3K yielded an abundance fitness of -0.089 ± 0.091.
R3N gave an abundance fitness of -0.145 ± 0.28.
In the case of R3I, the abundance fitness is reported as 0.485 ± 0.11.
With R3M the abundance fitness was 0.15 ± 0.14.
R3Q gave an abundance fitness of 0.27 ± 0.12.
In the case of R3Y, the abundance fitness is reported as 0.682 ± 0.17.
In the case of R3F, the abundance fitness is reported as 0.376 ± 0.19.
In the case of R3E, the abundance fitness is reported as 0.24 ± 0.099.
R3H gave an abundance fitness of -0.433 ± 0.44.
With R3A the abundance fitness was 0.182 ± 0.063.
R3L showed an abundance fitness of -0.008 ± 0.074.
R3T gave an abundance fitness of -0.013 ± 0.16.
With F6V the abundance fitness was -0.155 ± 0.37.
F6C showed an abundance fitness of -0.673 ± 0.22.
F6N gave an abundance fitness of -0.454 ± 0.46.
In the case of F6I, the abundance fitness is reported as -0.075 ± 0.2.
F6Q showed an abundance fitness of -0.678 ± 0.36.
Variant F6Y has an abundance fitness of -0.065 ± 0.21.
For F6S, the abundance fitness was -0.791 ± 0.14.
With F6D the abundance fitness was -0.599 ± 0.32.
F6M gave an abundance fitness of 0.123 ± 0.14.
Work on F6K yielded an abundance fitness of -0.703 ± 0.13.
F6R showed an abundance fitness of -0.688 ± 0.14.
For F6A, the abundance fitness was -0.865 ± 0.25.
F6G showed an abundance fitness of -0.797 ± 0.11.
With F6T the abundance fitness was -0.859 ± 0.33.
For F6W, the abundance fitness was -0.365 ± 0.12.
E12C showed an abundance fitness of -0.341 ± 0.25.
In the case of E12A, the abundance fitness is reported as -0.257 ± 0.16.
Work on T7V yielded an abundance fitness of -0.681 ± 0.093.
In the case of T7S, the abundance fitness is reported as 0.112 ± 0.073.
In the case of T7H, the abundance fitness is reported as -0.312 ± 0.3.
In the case of T7R, the abundance fitness is reported as -0.587 ± 0.2.
In the case of T7M, the abundance fitness is reported as -0.288 ± 0.35.
For T7K, the abundance fitness was -0.245 ± 0.17.
Work on T7G yielded an abundance fitness of -0.401 ± 0.098.
With T7N the abundance fitness was -0.084 ± 0.25.
T7L showed an abundance fitness of -0.417 ± 0.13.
T7A showed an abundance fitness of -0.068 ± 0.096.
T7F gave an abundance fitness of -0.701 ± 0.45.
T7E showed an abundance fitness of -0.352 ± 0.24.
T7D gave an abundance fitness of 0.161 ± 0.23.
With T7P the abundance fitness was -0.664 ± 0.29.
Variant T7W has an abundance fitness of -0.845 ± 0.28.
Variant T7C has an abundance fitness of -0.666 ± 0.23.
I11V showed an abundance fitness of -0.145 ± 0.083.
Work on I11F yielded an abundance fitness of -0.648 ± 0.42.
For I11N, the abundance fitness was 0.091 ± 0.37.
For I11W, the abundance fitness was -0.292 ± 0.2.
Variant I11E has an abundance fitness of 0.274 ± 0.12.
I11P showed an abundance fitness of -0.598 ± 0.22.
Variant I11R has an abundance fitness of -0.472 ± 0.13.
Variant I11T has an abundance fitness of -0.187 ± 0.13.
I11Y showed an abundance fitness of -0.46 ± 0.38.
For I11A, the abundance fitness was -0.344 ± 0.17.
I11Q gave an abundance fitness of -0.114 ± 0.28.
Variant I11C has an abundance fitness of -0.628 ± 0.25.
I11D showed an abundance fitness of -0.072 ± 0.28.
Variant I11G has an abundance fitness of -0.891 ± 0.27.
For I11M, the abundance fitness was -0.652 ± 0.26.
Work on I11K yielded an abundance fitness of -0.237 ± 0.34.
In the case of P2C, the abundance fitness is reported as 0.048 ± 0.22.
P2D showed an abundance fitness of 0.699 ± 0.075.
Variant P2V has an abundance fitness of 0.308 ± 0.079.
Work on P2A yielded an abundance fitness of 0.028 ± 0.12.
For P2K, the abundance fitness was 0.522 ± 0.11.
P2G showed an abundance fitness of 0.309 ± 0.065.
In the case of P2Y, the abundance fitness is reported as 0.772 ± 0.17.
For P2W, the abundance fitness was -0.046 ± 0.16.
With P2H the abundance fitness was 0.545 ± 0.18.
With P2T the abundance fitness was 0.126 ± 0.12.
With P2F the abundance fitness was 0.425 ± 0.14.
P2R showed an abundance fitness of -0.031 ± 0.13.
Work on P2L yielded an abundance fitness of 0.297 ± 0.068.
In the case of P2Q, the abundance fitness is reported as 0.386 ± 0.19.
Variant P2M has an abundance fitness of 0.333 ± 0.16.
For P2E, the abundance fitness was 0.734 ± 0.11.
Work on T4S yielded an abundance fitness of -0.187 ± 0.082.
Work on T4A yielded an abundance fitness of -0.164 ± 0.11.
In the case of T4G, the abundance fitness is reported as 0.129 ± 0.091.
Work on T4M yielded an abundance fitness of 0.634 ± 0.084.
For T4Q, the abundance fitness was 0.635 ± 0.14.
Variant T4D has an abundance fitness of -0.192 ± 0.42.
For T4H, the abundance fitness was 0.069 ± 0.32.
For T4F, the abundance fitness was 0.052 ± 0.2.
T4E gave an abundance fitness of 0.402 ± 0.096.
In the case of T4K, the abundance fitness is reported as 0.116 ± 0.1.
T4C gave an abundance fitness of 0.74 ± 0.16.
With T4W the abundance fitness was -0.501 ± 0.2.
T4I showed an abundance fitness of -0.007 ± 0.27.
In the case of T4R, the abundance fitness is reported as 0.171 ± 0.12.
In the case of T4N, the abundance fitness is reported as -0.067 ± 0.13.
For T4P, the abundance fitness was 0.125 ± 0.17.
Work on T4V yielded an abundance fitness of -0.003 ± 0.15.
Work on T4Y yielded an abundance fitness of -0.163 ± 0.25.
With Q8S the abundance fitness was 0.002 ± 0.1.
Q8W showed an abundance fitness of -0.598 ± 0.36.
With Q8V the abundance fitness was 0.122 ± 0.1.
Q8E showed an abundance fitness of -0.019 ± 0.14.
Variant Q8Y has an abundance fitness of -0.264 ± 0.26.
Q8F gave an abundance fitness of -0.441 ± 0.29.
In the case of Q8A, the abundance fitness is reported as 0.158 ± 0.065.
In the case of Q8K, the abundance fitness is reported as -0.179 ± 0.28.
In the case of Q8P, the abundance fitness is reported as -0.082 ± 0.16.
With Q8M the abundance fitness was -0.168 ± 0.12.
In the case of Q8H, the abundance fitness is reported as -0.373 ± 0.38.
Variant Q8T has an abundance fitness of -0.244 ± 0.17.
Work on Q8D yielded an abundance fitness of -0.094 ± 0.082.
Q8C gave an abundance fitness of -0.183 ± 0.18.
Work on Q8G yielded an abundance fitness of -0.416 ± 0.078.
Variant R1S has an abundance fitness of -0.482 ± 0.43.
Variant R1V has an abundance fitness of 0.134 ± 0.27.
For R1C, the abundance fitness was 0.12 ± 0.33.
With R1Y the abundance fitness was 0.406 ± 0.46.
In the case of R1A, the abundance fitness is reported as 0.352 ± 0.4.
R1G gave an abundance fitness of -0.505 ± 0.38.
With R1T the abundance fitness was -0.455 ± 0.49.
